Data set [1] deals with Saccharomyces cerevisiae. In words: protein stability index of tFT-peptide fusion in deletion strain of DAS1 (PSI (0-1 scale)); higher = more stable (slower turnover). The protocol: (§1)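 MPS profiling in S. cerevisiae of two library types built from selected 12-aa C-degron peptides (IN1, IN2, LN1, LN3, VN2, R1-R5, W1-W3, Atg1 and Rpa12 C-termini): saturation mutagenesis libraries and C-terminal +1 capping libraries (13 aa). Each peptide is fused to the C-terminus of a sfGFP-mCherry timer, after a GGGS linker. Cells are FACS-sorted into 8 mCherry/sfGFP bins and sequenced. PSI runs from 0 (unstable) to 1 (stable), measured once in wild type and in the das1Δ or doa10Δ background.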

Data set [2] concerns Saccharomyces cerevisiae. In words: protein stability index of tFT-peptide fusion in wild type (PSI (0-1 scale)); higher = more stable (slower turnover). The settings on record: genetic background: wild type. The protocol:
as §1

This passage reports protein stability index results from the supplement of paper PMC10724198.
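Throughout, for protein stability index of tFT-peptide fusion in deletion strain of DAS1: PSI is a weighted mean of each variant's read distribution over the sorted stability bins, computed only for variants having over 10 reads in total.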
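Throughout, for protein stability index of tFT-peptide fusion in wild type: PSI derived as read-weighted mean over the 8 sorting bins, only variants exceeding 10 total reads kept, mCherry placed adjacent to the peptide and sfGFP distal.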

Regarding FSMRWTFNYWVN, the protein stability index in the data set on Saccharomyces cerevisiae [1] worked out at 0.719; in the data set on Saccharomyces cerevisiae [2] it was 0.0909.

On to FSMRWTFRYDVN, for which the protein stability index with Saccharomyces cerevisiae [1] was 0.572; in the data set on Saccharomyces cerevisiae [2], 0.524.

On to FSMRWTFRYWAN, for which the protein stability index came to 0.537 in the data set with Saccharomyces cerevisiae [1] and 0.101 in the data set with Saccharomyces cerevisiae [2].

Take FSMRWTFRYWKN: the figures for the protein stability index in the data set on Saccharomyces cerevisiae [1] and with Saccharomyces cerevisiae [2] were 0.524 and 0.634, respectively.

Regarding FSMRWTFRYWPN, the protein stability index in the data set on Saccharomyces cerevisiae [1] amounted to 0.528; with Saccharomyces cerevisiae [2], 0.525.

Take FSMRWTFRYWVH: the protein stability index in the data set on Saccharomyces cerevisiae [1] was 0.439; in the data set on Saccharomyces cerevisiae [2] it was 0.094.

For the sequence FSMRWTFRYWVI, the protein stability index was determined as 0.461 with Saccharomyces cerevisiae [1] and 0.147 in the data set with Saccharomyces cerevisiae [2].

Consider FSMRWTFRYWVNE, for which the protein stability index amounted to 0.542 in the data set on Saccharomyces cerevisiae [1] and 0.532 with Saccharomyces cerevisiae [2].

Turning to FSMRWTFRYWVNL, the protein stability index in the data set with Saccharomyces cerevisiae [1] worked out at 0.549; in the data set on Saccharomyces cerevisiae [2], 0.139.

Consider FSMRWTFRYWVNW, for which the protein stability index with Saccharomyces cerevisiae [1] amounted to 0.534; in the data set with Saccharomyces cerevisiae [2], 0.436.

Regarding FSMRWTFRYWVV, the figures for the protein stability index with Saccharomyces cerevisiae [1] and in the data set with Saccharomyces cerevisiae [2] were 0.526 and 0.0991, respectively.

In the case of FSMRWTQRYWVN, the figures for the protein stability index with Saccharomyces cerevisiae [1] and with Saccharomyces cerevisiae [2] were 0.545 and 0.117, respectively.

As to FSMRWWFRYWVN, the protein stability index in the data set on Saccharomyces cerevisiae [1] turned out to be 0.533; in the data set with Saccharomyces cerevisiae [2] it was 0.0988.

FSMTWTFRYWVN: the values for the protein stability index in the data set with Saccharomyces cerevisiae [1] and with Saccharomyces cerevisiae [2] were 0.568 and 0.0417, respectively.

In the case of FYMRWTFRYWVN, the protein stability index in the data set with Saccharomyces cerevisiae [1] was determined as 0.351; in the data set on Saccharomyces cerevisiae [2], 0.044.

On to GRWRVGLWRGAS, for which the results for the protein stability index in the data set on Saccharomyces cerevisiae [1] and in the data set on Saccharomyces cerevisiae [2] were 0.691 and 0.447, respectively.

As for IRGAVGGWRLVG, the protein stability index with Saccharomyces cerevisiae [1] amounted to 0.681; in the data set with Saccharomyces cerevisiae [2], 0.154.

Consider KAHKKGQKQKIN, for which the protein stability index in the data set with Saccharomyces cerevisiae [1] worked out at 0.858; with Saccharomyces cerevisiae [2] it was 0.111.

In the case of KDKRNHLIKLLN, the results for the protein stability index in the data set with Saccharomyces cerevisiae [1] and in the data set on Saccharomyces cerevisiae [2] were 0.723 and 0.0684, respectively.

For the sequence KEHKKGQKQKIN, the figures for the protein stability index in the data set with Saccharomyces cerevisiae [1] and in the data set on Saccharomyces cerevisiae [2] were 0.634 and 0.127, respectively.

For KHHKKGQKQKIN, the protein stability index with Saccharomyces cerevisiae [1] stood at 0.581; in the data set with Saccharomyces cerevisiae [2], 0.101.

On to KKHFKGQKQKIN, for which the protein stability index in the data set with Saccharomyces cerevisiae [1] came out at 0.594; in the data set on Saccharomyces cerevisiae [2] it was 0.0456.

As for KKHIKGQKQKIN, the protein stability index is 0.598 with Saccharomyces cerevisiae [1] and 0.0778 in the data set with Saccharomyces cerevisiae [2].

For KKHKFGQKQKIN, the values for the protein stability index in the data set with Saccharomyces cerevisiae [1] and with Saccharomyces cerevisiae [2] were 0.578 and 0.0916, respectively.

KKHKKGEKQKIN: the figures for the protein stability index in the data set with Saccharomyces cerevisiae [1] and with Saccharomyces cerevisiae [2] were 0.658 and 0.082, respectively.

For the sequence KKHKKGQEQKIN, the protein stability index with Saccharomyces cerevisiae [1] is 0.543; in the data set with Saccharomyces cerevisiae [2], 0.109.

Turning to KKHKKGQKQDIN, the values for the protein stability index in the data set with Saccharomyces cerevisiae [1] and with Saccharomyces cerevisiae [2] were 0.601 and 0.795, respectively.

On to KKHKKGQKQKIE, for which the figures for the protein stability index in the data set on Saccharomyces cerevisiae [1] and in the data set on Saccharomyces cerevisiae [2] were 0.585 and 0.567, respectively.

With KKHKKGQKQKIF, the protein stability index with Saccharomyces cerevisiae [1] is 0.602; with Saccharomyces cerevisiae [2] it was 0.218.

In the case of KKHKKGQKQKIG, the protein stability index in the data set with Saccharomyces cerevisiae [1] worked out at 0.591; in the data set on Saccharomyces cerevisiae [2], 0.226.

KKHKKGQKQKII: the figures for the protein stability index with Saccharomyces cerevisiae [1] and with Saccharomyces cerevisiae [2] were 0.632 and 0.12, respectively.

On to KKHKKGQKQKINC, for which the protein stability index came to 0.658 in the data set with Saccharomyces cerevisiae [1] and 0.333 in the data set on Saccharomyces cerevisiae [2].

As to KKHKKGQKQKINF, the protein stability index was determined as 0.669 in the data set on Saccharomyces cerevisiae [1] and 0.652 in the data set with Saccharomyces cerevisiae [2].

Regarding KKHKKGQKQKINK, the protein stability index in the data set on Saccharomyces cerevisiae [1] is 0.659; in the data set with Saccharomyces cerevisiae [2], 0.647.

In the case of KKHKKGQKQKINM, the figures for the protein stability index with Saccharomyces cerevisiae [1] and in the data set on Saccharomyces cerevisiae [2] were 0.662 and 0.638, respectively.

Turning to KKHKKGQKQKINT, the figures for the protein stability index in the data set on Saccharomyces cerevisiae [1] and with Saccharomyces cerevisiae [2] were 0.662 and 0.62, respectively.

In the case of KKHKKGQKQKIW, the protein stability index in the data set with Saccharomyces cerevisiae [1] turned out to be 0.558; in the data set with Saccharomyces cerevisiae [2], 0.637.

Consider KKHKKGQKQKYN, for which the protein stability index with Saccharomyces cerevisiae [1] was 0.586; in the data set on Saccharomyces cerevisiae [2] it was 0.309.

Take KKHKKGQTQKIN: the protein stability index in the data set on Saccharomyces cerevisiae [1] worked out at 0.591; in the data set on Saccharomyces cerevisiae [2] it was 0.0981.

Regarding KKHKKGQVQKIN, the protein stability index is 0.649 in the data set on Saccharomyces cerevisiae [1] and 0.152 in the data set on Saccharomyces cerevisiae [2].

Consider KKHKKSQKQKIN, for which the protein stability index with Saccharomyces cerevisiae [1] came to 0.584; with Saccharomyces cerevisiae [2], 0.0607.

In the case of KKHKLGQKQKIN, the protein stability index was determined as 0.58 in the data set with Saccharomyces cerevisiae [1] and 0.0725 in the data set on Saccharomyces cerevisiae [2].

As to KKIKKGQKQKIN, the protein stability index in the data set on Saccharomyces cerevisiae [1] was found to be 0.58; in the data set on Saccharomyces cerevisiae [2], 0.06.

As for KKQKKGQKQKIN, the protein stability index was 0.566 in the data set on Saccharomyces cerevisiae [1] and 0.177 in the data set on Saccharomyces cerevisiae [2].

For KKWKKGQKQKIN, the protein stability index with Saccharomyces cerevisiae [1] is 0.561; in the data set on Saccharomyces cerevisiae [2] it was 0.0754.

Take KRHKKGQKQKIN: the results for the protein stability index with Saccharomyces cerevisiae [1] and in the data set with Saccharomyces cerevisiae [2] were 0.634 and 0.0723, respectively.

For KVVYLSCVACIN, the figures for the protein stability index in the data set on Saccharomyces cerevisiae [1] and in the data set on Saccharomyces cerevisiae [2] were 0.0792 and 0.0215, respectively.

Take LKILPQKMNHQN: the protein stability index in the data set on Saccharomyces cerevisiae [1] is 0.686; in the data set with Saccharomyces cerevisiae [2] it was 0.417.

Turning to LKILRIKMNHQN, the protein stability index in the data set on Saccharomyces cerevisiae [1] was determined as 0.66; with Saccharomyces cerevisiae [2] it was 0.19.

As to LKILRNKMNHQN, the protein stability index in the data set on Saccharomyces cerevisiae [1] was 0.703; in the data set with Saccharomyces cerevisiae [2] it was 0.269.

Turning to LKILRQAMNHQN, the protein stability index in the data set on Saccharomyces cerevisiae [1] amounted to 0.658; in the data set on Saccharomyces cerevisiae [2], 0.23.

With LKILRQDMNHQN, the results for the protein stability index in the data set on Saccharomyces cerevisiae [1] and with Saccharomyces cerevisiae [2] were 0.643 and 0.647, respectively.

With LKILRQGMNHQN, the results for the protein stability index with Saccharomyces cerevisiae [1] and with Saccharomyces cerevisiae [2] were 0.667 and 0.49, respectively.

As for LKILRQHMNHQN, the protein stability index with Saccharomyces cerevisiae [1] came out at 0.662; in the data set with Saccharomyces cerevisiae [2], 0.201.

Turning to LKILRQKGNHQN, the values for the protein stability index in the data set on Saccharomyces cerevisiae [1] and in the data set on Saccharomyces cerevisiae [2] were 0.676 and 0.655, respectively.

For LKILRQKHNHQN, the protein stability index in the data set with Saccharomyces cerevisiae [1] was 0.67; in the data set on Saccharomyces cerevisiae [2], 0.322.

Take LKILRQKMNCQN: the values for the protein stability index in the data set on Saccharomyces cerevisiae [1] and with Saccharomyces cerevisiae [2] were 0.673 and 0.207, respectively.

Consider LKILRQKMNEQN, for which the protein stability index is 0.663 in the data set with Saccharomyces cerevisiae [1] and 0.253 in the data set with Saccharomyces cerevisiae [2].

Consider LKILRQKMNHAN, for which the protein stability index in the data set on Saccharomyces cerevisiae [1] amounted to 0.657; in the data set on Saccharomyces cerevisiae [2] it was 0.196.

Consider LKILRQKMNHIN, for which the protein stability index in the data set with Saccharomyces cerevisiae [1] was 0.671; in the data set with Saccharomyces cerevisiae [2], 0.183.

With LKILRQKMNHQE, the protein stability index in the data set on Saccharomyces cerevisiae [1] worked out at 0.675; with Saccharomyces cerevisiae [2] it was 0.507.

LKILRQKMNHQM: the protein stability index in the data set on Saccharomyces cerevisiae [1] was found to be 0.656; with Saccharomyces cerevisiae [2], 0.244.

For the sequence LKILRQKMNHQNR, the protein stability index is 0.673 with Saccharomyces cerevisiae [1] and 0.677 with Saccharomyces cerevisiae [2].

As for LKILRQKMNHQNS, the figures for the protein stability index in the data set with Saccharomyces cerevisiae [1] and in the data set on Saccharomyces cerevisiae [2] were 0.671 and 0.521, respectively.

For LKILRQKMNHQV, the protein stability index in the data set with Saccharomyces cerevisiae [1] was 0.671; with Saccharomyces cerevisiae [2] it was 0.189.

LKILRQKMNHQW: the values for the protein stability index in the data set with Saccharomyces cerevisiae [1] and in the data set on Saccharomyces cerevisiae [2] were 0.679 and 0.255, respectively.

Turning to LKILRQKMNTQN, the protein stability index in the data set with Saccharomyces cerevisiae [1] stood at 0.675; in the data set on Saccharomyces cerevisiae [2], 0.212.
